What was measured:
[1] = test system: human liver lysosome; assay: Metabolism test using human liver lysosomal fraction; assay type: in vitro ADME; conditions: 37° C., 24 hours, released drug, LC-MS/MS
Procedure: To a reaction composition solution (X10 Catabolic Buffer (manufactured by SEKISUI-Xenotech, LLC., K5200))(60 μL) in which human liver lysosome (manufactured by SEKISUI-Xenotech, LLC., Cat No. H610.L 2.5 mg/mL)(corresponding to 0.125 mg of protein) was suspended and distilled water (manufactured by FUJIFILM Wako Pure Chemical Corporation, for HPLC)(10 μL) was added 1.2 μM test compound (antibody-drug conjugate produced in ADC Production examples)(25 μL) dissolved in PBS to prepare a reaction solution. After the reaction solution was incubated at 37° C. for 24 hours, “an antitumor drug molecule or an analog thereof, or a derivative thereof” released from the antibody-drug conjugate into the reaction solution was quantified by LC-MS/MS (high performance liquid chromatography/mass spectrometer system) under the following conditions. LC-MS/MS analysis conditions
(§1) LC: LC20 or LC30 HPLC system manufactured by Shimadzu Corporation
(§2) Column: Phenomenex Kinetex C18 (50×2.1 mm, 2.6 μm)
(§3) Column temperature: 40° C.
(§4) Mobile phase A: 0.1% aqueous solution of formic acid, Mobile phase B: 0.1% solution of formic acid in a mixture of 50% acetonitrile/methanol
(§5) Mode: Positive or Negative
(§6) The release rate (%) of drug was calculated by the following equation.

[2] = target: T1, human liver Cathepsin B (Homo sapiens, UniProt P07858); assay: Metabolism test using human liver Cathepsin B; assay type: in vitro ADME; conditions: 37° C., 24 hours, released drug, LC-MS/MS
T1 construct: human liver Cathepsin B (manufactured by Sigma-Aldrich Co. LLC, Cat No. C8571 25 μg/vial); purchased Sigma-Aldrich Co. LLC C8571; host or cells: human liver
Procedure: To human liver Cathepsin B (manufactured by Sigma-Aldrich Co. LLC, Cat No. C8571 25 μg/vial)(corresponding to 400 Unit/mL)(5 μL), X10 Catabolic Buffer (manufactured by SEKISUI-Xenotech, LLC., K5200)(10 μL), 2.5 mM Bovine Serum Albumin (manufactured by FUJIFILM Wako Pure Chemical Corporation, Cat No. 012-15093)(5 μL), and distilled water (manufactured by FUJIFILM Wako Pure Chemical Corporation, for HPLC)(55 μL) was added 1.2 μM test compound (antibody-drug conjugate prepared in ADC Production examples)(25 μL) dissolved in PBS to prepare a reaction solution. After the reaction solution was incubated at 37° C. for 24 hours, “an antitumor drug molecule or an analog thereof, or a derivative thereof” released from the antibody-drug conjugate into the reaction solution was quantified by LC-MS/MS (high performance liquid chromatography/mass spectrometer system) under the following conditions. LC-MS/MS analysis conditions
as §1, §2, §3, §4, §5, §6

[3] = Pharmacokinetic test (serum trastuzumab residual rate); assay type: in vivo; conditions: female BALB/c mouse, intravenous; 3 days vs 5 minutes after administration
Source text: After a prescribed time period, the blood was collected from the jugular vein or abdominal vein, and centrifuged to prepare a serum. The resulting serum was cryopreserved until the measurement.

[4] = Retention time in HPLC (index of hydrophilicity); assay type: physicochemical; conditions: Table 6 (eribulin precursors); BEH C18, 0.1% formic acid/acetonitrile gradient, 40° C.
Procedure: As an index of hydrophilicity of the Examples, the retention time (RT) in HPLC analysis was measured, and compared.
Device: LCMS2020 system Shimadzu Corporation
Column: Acquity UPLC (registered trademark) BEH C18 (2.1×50 mm, 1.7 μm)_Waters
Eluent: Solution A: 0.1% aqueous solution of formic acid, Solution B: 0.1% solution of formic acid in acetonitrile

Compound | Release rate (%) of drug from ADC [1] [%] | Release rate (%) of drug from ADC [2] [%] | Serum trastuzumab residual rate after 3 days from administration (%) [3] [%] | Retention time in HPLC measurement [4] [min]
C=C1C[C@@H]2CC[C@@]34C[C@H]5O[C@H]6[C@@H](O3)[C@H]3O[C@H](CC[C@@H]3O[C@H]6[C@H]5O4)CC(=O)C[C@@H]3[C@@H](OC)[C@@H](C[C@H](O)CNC(=O)OCc4ccc(NC(=O)[C@H](CCCNC(N)=O)NC(=O)[C@@H](NC(=O)[C@H](CC(=O)N[C@H]5CCOC5=O)NC(=O)CN(C)CCNC(=O)CCOCCOCCOCCOCCNC(=O)[C@H](CNC(=O)CCP(=O)(O)O)N5C(=O)C=CC5=O)C(C)C)cc4)O[C@H]3C[C@H]3O[C@@H](CC[C@@H]1O2)C[C@@H](C)C3=C [Example 16] | 72 | 62 | 64 | 0.97
C=C1C[C@@H]2CC[C@@]34C[C@H]5O[C@H]6[C@@H](O3)[C@H]3O[C@H](CC[C@@H]3O[C@H]6[C@H]5O4)CC(=O)C[C@@H]3[C@@H](OC)[C@@H](C[C@H](O)CNC(=O)OCc4ccc(NC(=O)[C@H](CCCNC(N)=O)NC(=O)[C@@H](NC(=O)[C@H](CC(=O)N[C@H]5CCOC5=O)NC(=O)[C@H](CCCCN(C)C)NC(=O)CCOCCOCCOCCOCCNC(=O)[C@H](CNC(=O)CCP(=O)(O)O)N5C(=O)C=CC5=O)C(C)C)cc4)O[C@H]3C[C@H]3O[C@@H](CC[C@@H]1O2)C[C@@H](C)C3=C [Example 18] | 75 | 64 | 73 | 0.96

— US20250170267A1, “ANTIBODY-DRUG CONJUGATE PRECURSOR AND INTERMEDIATE FOR SYNTHESIS THEREOF” (UBE Corporation, priority 2022, published 2025)
